Experimental data published in US20240425583A1, “METHODS AND COMPOSITIONS RELATED TO MCL-1 AND BIM HETERODIMER ANTIBODIES” (priority 2021, published 2024).

Columns and labels:
[1] = assay type: physicochemical
Procedure: FIG. 2 is a graph showing the selective binding of the MCL-1/BIM heterodimer (HSMCB) antibody to the MCL-1/BIM heterodimer, and the stability of this antibody at 4° C. for about 2 months. Each line in the graph follows the order in the legend (i.e., the top line is for sample 5-01-20b, the next line is for 5-22-20b, the next line is for 5-29b; this pattern is throughout the entire graph). The antibody in this figure is an antibody having CDRs selected from SEQ ID NO: 9, SEQ ID NO: 10, SEQ ID NO: 11, SEQ ID NO: 12, SEQ ID NO: 13, SEQ ID NO: 14, and having a variable heavy chain selected from SEQ ID NO: 15, and a variable light chain selected from SEQ ID NO: 16. […]

[2] = test system: MCF-7 breast cancer cells; test: IHC staining of FFPE MCF-7 cells, wild-type vs BIM siRNA; assay type: cell-based, human; settings: BIM-siRNA transfected MCF-7 cells vs wild-type, FIG. 3
Description: (§1) The MCL-1/BIM heterodimer antibody (HSMCB) requires BIM to bind in situ. BIM siRNA was used on both MCF-7 and HCC70 cells (far left, and right middle columns, respectively), and the cells were then formalin-fixed and paraffin embedded into a tissue microarray (TMA) block, sectioned and added to glass slides, and stained with HSMCB. IHC images of the wild-type (WT) staining for both MCF-7 and HCC70 cells are shown in the middle-left, and far right columns, respectively. […] The images across the top panel in FIG. 3 are of an HSMCB antibody having CDRs selected from SEQ ID NO: 9, SEQ ID NO: 10, SEQ ID NO: 11, SEQ ID NO: 12, SEQ ID NO: 13, SEQ ID NO: 14, and having a variable heavy chain selected from SEQ ID NO: 15, and a variable light chain selected from SEQ ID NO: 16; and the images across the bottom panel in FIG. 3 are of an HSMCB antibody having CDRs selected from SEQ ID NO: 1, SEQ ID NO: 2, SEQ ID NO: 3, SEQ ID NO: 4, SEQ ID NO: 5, SEQ ID NO: 6, and having a variable heavy chain selected from SEQ ID NO: 7, and a variable light chain selected from SEQ ID NO: 8.
(§2) The experiments of this example show a set of IHC images relating to the application of the Mcl-1/Bim heterodimer antibody (HSMCB) to formalin-fixed paraffin-embedded (FFPE) specimens from MCF-7 breast cancer cells, and HCC70 triple negative breast cancer cells. […]

[3] = test system: HCC70 triple negative breast cancer cells; test: IHC staining of FFPE HCC70 cells, wild-type vs BIM siRNA; assay type: cell-based, human; settings: for HSMCB IHC signal intensity: BIM-siRNA transfected HCC70 cells vs wild-type, FIG. 3
Description: as §1
In the far left panel. IHC images of the HSMCB antibody are shown for both WT HCC70 cells, and Bim-siRNA transfected HCC70 cells. In the middle panel. IHC images of the HSBXB antibody are shown for both WT HCC70 cells, and Bim-siRNA transfected HCC70 cells. In the far right panel. IHC images are shown of HCC70 cells without application of HSMCB or HSBXB. […] The images in the left column of FIG. 4 are of an HSMCB antibody having CDRs selected from SEQ ID NO: 9, SEQ ID NO: 10, SEQ ID NO: 11, SEQ ID NO: 12, SEQ ID NO: 13, SEQ ID NO: 14, and having a variable heavy chain selected from SEQ ID NO: 15, and a variable light chain selected from SEQ ID NO: 16.
as §2

[4] = test system: FFPE breast cancer patient biopsy (BCa_01 NV401); test: IHC staining of serial sections from a FFPE breast cancer patient biopsy; design: species or system human; settings: compared with HSBXB, 10× objective, FIG. 8
Description: The image on the left side of FIG. 8 is of an HSMCB antibody having CDRs selected from SEQ ID NO: 9, SEQ ID NO: 10, SEQ ID NO: 11, SEQ ID NO: 12, SEQ ID NO: 13, SEQ ID NO: 14, and having a variable heavy chain selected from SEQ ID NO: 15, and a variable light chain selected from SEQ ID NO: 16.
In these experiments, PDX stains were used for image analysis software from Leica and Halo were compared for quantitative analysis.

Mcl-1 Bim-BH3 complex = target: T1, Mcl-1 Bim-BH3 complex (Homo sapiens, UniProt Q07820); test: HSMCB on Mcl-1-Bim non-covalently bound beads; assay type: binding; settings: Bim-BH3 10 uM to 50 uM, FIG. 14
T1 construct: mutated to delete their transmembrane domains; made in house; host or cells: E. coli BL21 (D3)
T1 sequence (Q07820 1-327 limits assumed): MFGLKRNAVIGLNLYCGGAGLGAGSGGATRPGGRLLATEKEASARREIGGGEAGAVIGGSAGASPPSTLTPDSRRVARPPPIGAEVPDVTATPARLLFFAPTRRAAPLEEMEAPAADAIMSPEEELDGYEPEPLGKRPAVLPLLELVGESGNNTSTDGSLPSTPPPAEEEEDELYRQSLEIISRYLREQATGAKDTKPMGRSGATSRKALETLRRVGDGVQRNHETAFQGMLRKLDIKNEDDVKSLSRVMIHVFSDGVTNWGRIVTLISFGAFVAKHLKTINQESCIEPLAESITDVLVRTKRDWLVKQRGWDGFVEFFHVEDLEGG
T1 sequence (O43521 146-166 partner limits assumed): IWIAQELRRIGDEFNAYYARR

Molecule	stability of the antibody at 4° C. [1]	HSMCB IHC signal intensity [2]	HSMCB IHC signal intensity [3]	IHC activity ([3]; Bim-siRNA transfected HCC70 cells vs WT, FIG. 4)	IHC reactivity with tissue sample [4]	recognition of Mcl-1 Bim-BH3 complex on beads (Mcl-1 Bim-BH3 complex)
HSMCB (SEQ ID NO: 15, SEQ ID NO: 16): MCL-1/BIM heterodimer antibody, CDRs SEQ ID NO: 9-14, variable heavy chain SEQ ID NO: 15, variable light chain SEQ ID NO: 16 (antibody, V domains shown) VH: MDWIWIMLHLLAAATGLQSQVHLQQSGSELRSPGSSVKLSCKDFDSEVFPIAYMSWVRQKPGHGFEWIGDILPSIGRTIYGEKFEDKATLDADTVSNTAYLELNSLTSEDSAIYYCARQDTYYAMDYWGQGTSVTVSS VL: MHFQVQIFSFLLISASVIMSRGQIVLTQSPAIMSASPGEKVTITCSASSSVSYMHWVQQKPGTSPKLWIYSTSNLASGVPARFRGSGSGTSYSLTISRMEAEDAATYYCQQRSSYPYTFGGGTKLEIK	about 2 months	reduced HSMCB IHC signal intensity	reduced HSMCB IHC signal intensity	reduced activity	higher reactivity	–
HSMCB (SEQ ID NO: 7, SEQ ID NO: 8): MCL-1/BIM heterodimer antibody, CDRs SEQ ID NO: 1-6, variable heavy chain SEQ ID NO: 7, variable light chain SEQ ID NO: 8 (antibody, V domains shown) VH: MNFGLSLIFLVLVLKGVQCEVQLVESGGDLVKPGGSLKLSCAVSGFTFSSYAMSWVRQTPAKRLEWVATISSGGFATYYPDTVKGRFTISRDNAKNTLYLQMSSLRSEDTAMYYCARHGGGSYGWFAYWGQGTLVTVSE VL: MLSLAPLLSLLLLCVSDSRAETTVTQSPASLSVATGEKVTIRCITSTDIDDDMNWYQQKPGEPPKLLISEGNTLRPGVPSRFSSSGYGTDFVFTIENTLSEDFADYYCLQSDNMPYTFGGGTKLEIK	–	reduced HSMCB IHC signal intensity	reduced HSMCB IHC signal intensity	–	–	recognize the Mcl-1 Bim-BH3 complex at a significant level
